Legend:
[1] = molecular target: recombinant human artemin protein (human); experiment: plate binding assay: ligand coated, soluble receptor body titrated, anti-human Fc-HRP, A450; apparent Kd
[2] = molecular target: recombinant neurturin (human mature amino acid sequence) (human); experiment: as above
[3] = molecular target: recombinant GDNF (human mature amino acid sequence) (human); experiment: as above
[4] = test system: SH-SY5Y neuroblastoma cell line; experiment: Differentiation of SH-SY5Y neuroblastoma cells; assay type: cell-based; settings: 10 μM, three days after factor addition, FIG. 8B
Method: In one experiment, cells from the SH-SY5Y neuroblastoma cell line were plated at 2×10^5 cells/ml/well in 12-well tissue culture plates. After one day in culture cells were either left untreated (Cn) or stimulated with 50 ng/ml artemin (ART) or 10 μM retinoic acid (RA), a known inducer of differentiation of SH-SYSY cells. Three days after factor addition, differentiation was assessed and cells were photographed.

[5] = test system: GFRα1-Fc; experiment: Direct binding of soluble GFRα1-Fc receptor body to plate-coated ligand; settings: ligand coated at 325 ng/ml, absence of RET, FIG. 9C
Method: (§1) To investigate which if any of the known coreceptor(s) artemin can utilize to activate RET, its ability to directly bind to soluble Fc-fusion forms of GFRα1, GFRα2, or GFRα3 was assessed. GFRα1-Fc, GFRα2-Fc and GFRα3-Fc fusion proteins were obtained from R&D Systems. Binding assays were performed similarly to assays previously described (Sanicola et al., Proc. Natl. Acad. Sci., USA 94:6238-6243, 1997). Recombinant GDNF, neurturin, artemin, persephin, or purified bovine serum albumin (BSA; Pierce) were coated to Nunc-Immuno MaxiSorp microtiter plates at 325 ng/ml in TBS (10 mM Tris-HCl pH 7.5, 150 mM NaCl) for 1 hour at 25° C. Plates were washed (3× in TBS/0.03% Tween-20), and then blocked (blocking solution: TBS/1% BSA) for 1 hr at 25° C. Receptor bodies diluted in blocking solution were added and incubated for 2 hr at 25° C., washed 5X, then incubated with 1:10,000 dilution of HRP-conjugated anti-human Fc antibodies in blocking solution (Jackson Immunoresearch) for 45 minutes at 25° C. Finally, wells were washed 5× and the presence of HRP was assayed by addition of the chromogenic substrate 3,3, 5,5-tetramethylbenzidine for 5 min. The reaction was stopped by adding an equal volume of 0.5M H2SO4, and color was measured in a plate reader at 450 nm. Non-specific binding of receptor bodies to the plates was measured in BSA coated wells, and this binding was subtracted from all other measurements.

[6] = test system: GFRα2-Fc; experiment: Direct binding of soluble GFRα2-Fc receptor body to plate-coated ligand; settings: ligand coated at 325 ng/ml, absence of RET, FIG. 9D
Method: as §1, with “Finally, wells were washed 5× and the presence of HRP was assayed by addition of the chromogenic substrate 3,3, 5,5-tetramethylbenzidine for 5 min.” left out

[7] = test system: nodose ganglion (NG) neurons; experiment: Survival of cultured nodose ganglion neurons; assay type: cell-based, rat; settings: FIG. 7D
Method: (§2) Each GDNF ligand family member consisted of the human mature amino acid sequence and was produced by standard recombinant DNA methods. Recombinant GDNF, neurturin and persephin were obtained from Genentech while recombinant artemin was produced as described in Example 3.
(§3) The cultures were performed using standard methods described elsewhere (Kotzbauer et al., Neuron 12:763-773, 1994; Kotzbauer et al., Nature 384:467-470, 1996; Milbrandt et al., Neuron 20:245-253, 1998). In brief, for SCG neurons, after dissection and dissociation, neurons were plated on collagen-coated 24-well tissue culture plates and maintained in NGF-containing medium (AM50) for 5 days, after which they were either kept in AM50 or switched to medium containing neutralizing anti-NGF antibodies plus GDNF, neurturin, persephin, artemin, (50 ng/ml where not noted otherwise), or no growth factors. Cultures were maintained for 3 days, after which they were fixed in 4% paraformaldehyde and stained with toluidine blue, and surviving neurons were counted. For nodose ganglion and dorsal root ganglion neuron cultures, dissociated neurons were plated directly into NGF (for dorsal root ganglia), or BDNF (for nodose ganglia, 100 ng/ml) or one of the GDNF ligands in serum-containing medium (AM50 with anti-NGF antibodies), and cells surviving after 3 days in culture were counted as above. Trigeminal ganglia were dissected, dissociated, and plated directly into medium containing NGF or the indicated GDNF ligands, and the number of surviving cells was assessed after 3 days in vitro. For all culture systems, 2-3 independent experiments were performed.

[8] = test system: CHP134 neuroblastoma cell line; experiment: Responsiveness of a neuroblastoma cell line that does not express RET (CHP134); assay type: cell-based; settings: data not shown
[9] = test system: trigeminal ganglion (TG) neurons; experiment: Survival of cultured trigeminal ganglion neurons; assay type: cell-based, rat; settings: 50 ng/ml, 3 days in vitro, FIG. 7C
Method: as §2, §3

[10] = test system: SAN neuroblastoma cell line; experiment: Responsiveness of a neuroblastoma cell line that does not express RET (SAN); assay type: cell-based; settings: data not shown
[11] = test system: dorsal root ganglion (DRG) neurons; experiment: Survival of cultured dorsal root ganglion neurons; assay type: cell-based, rat; settings: 50 ng/ml, 3 days in culture, FIG. 7A
Method: as §2, §3

[12] = test system: CHP126 neuroblastoma cell line; experiment: Responsiveness of a neuroblastoma cell line that does not express RET (CHP126); assay type: cell-based; settings: data not shown
[13] = test system: NBL-S neuroblastoma cell line; experiment: BrdU cell proliferation assay in NBL-S neuroblastoma cells; assay type: cell-based; settings: 50 ng/mL, 30 hrs after factor addition, FIG. 8D
Method: In another experiment, the ability of artemin to induce proliferation of the NBL-S neuroblastoma cell line was examined. NBL-S cells were plated at 5×10^4 cells/well on 48-well plates in standard medium, either without treatment or in the presence of 50 ng/mL of GDNF, artemin, or persephin. Actively dividing cells undergoing DNA synthesis 30 hrs after factor addition were detected using the BrdU (colorimetric) cell proliferation assay kit according to the manufacturer's instructions (Boehringer-Mannheim) and the data are shown in FIG. 8D.

GFRα3-Fc fusion protein was tested, and the Kd [1] was 3 nM.

GFRα2-Fc fusion protein showed a Kd [2] of 3 nM.

GFRα1-Fc fusion protein gave a Kd [2] of 3 nM and a Kd [3] of 3 nM.

`CC1=C(/C=C/C(C)=C/C=C/C(C)=C/C(=O)O)C(C)(C)CCC1` [retinoic acid, all-trans retinoic acid, reference compound] was tested, and the “differentiation (neurite outgrowth, neuronal morphology) of SH-SY5Y cells” value [4] was “induced strong differentiation responses”.

B1: neurturin: recombinant human mature neurturin obtained from Genentech (protein, UniProt Q99748 96-197, looked up)
Neurturin: ARLGARPCGLRELEVRVSELGLGYASDETVLFRYCAGACEAAARVYDLGLRRLRQRRRLRRERVRAQPCCRPTAYEDEVSFLDAHSRYHTVHELSARECACV
With B1 the “direct binding of GFRα1-Fc” value [5] was “able to bind to both GDNF and neurturin with similar affinity”, the “direct binding of GFRα2-Fc” value [6] was “bound to neurturin” and the “survival of NG neurons” value ([7]; 50 ng/ml, 3 days in culture) was “supported similar numbers of NG neurons”. The “survival promotion of NG neurons compared with BDNF” value ([7]; GDNF family ligands 50 ng/ml, BDNF 100 ng/ml) was “equal or greater survival promotion than BDNF”, the “response of CHP134 cells” value [8] was “did not respond” and the “survival of TG sensory neurons” value [9] was “supported the survival of a subset of sensory neurons”. The “response of SAN cells” value [10] was “did not respond”, the “survival of DRG sensory neurons” value [11] was “supported the survival of a subset of sensory neurons” and the “response of CHP126 cells” value [12] was “did not respond”.

B2: persephin: recombinant human mature persephin obtained from Genentech (protein, UniProt O60542 22-156, looked up)
Persephin: WGPDARGVPVADGEFSSEQVAKAGGTWLGTHRPLARLRRALSGPCQLWSLTLSVAELGLGYASEEKVIFRYCAGSCPRGARTQHGLALARLQGQGRAHGGPCCRPTRYTDVAFLDDRHRWQRLPQLSAAACGCGG
With B2 the “direct binding of GFRα1-Fc” value [5] was “not to persephin or artemin” and the “proliferation of NBL-S cells (BrdU incorporation)” value [13] was “did not”.

— US20020002269A1, “ARTEMIN, A NEUROTROPHIC FACTOR” (priority 1998, published 2002)
